Positions of bridges follow the written chain, without caps; N, C: chain ends. Non-standard residues stand in square brackets, D forms with d. Residues, ends and D or L forms follow the SMILES beside them. No end group written: not given here. dPhe(4-CF3) = N[C@H](Cc1ccc(C(F)(F)F)cc1)C(=O)O; dTrp(6-F) = N[C@H](Cc1c[nH]c2cc(F)ccc12)C(=O)O; R8 = C=CCCCCCC[C@@](C)(N)C(=O)O; S8 = C=CCCCCCC[C@](C)(N)C(=O)O; R5 = C=CCCC[C@@](C)(N)C(=O)O; S5 = C=CCCC[C@](C)(N)C(=O)O
T1: MDM4 (Homo sapiens, UniProt O15151)
T1 construct: GST; made in house
T1 sequence (O15151 1-490): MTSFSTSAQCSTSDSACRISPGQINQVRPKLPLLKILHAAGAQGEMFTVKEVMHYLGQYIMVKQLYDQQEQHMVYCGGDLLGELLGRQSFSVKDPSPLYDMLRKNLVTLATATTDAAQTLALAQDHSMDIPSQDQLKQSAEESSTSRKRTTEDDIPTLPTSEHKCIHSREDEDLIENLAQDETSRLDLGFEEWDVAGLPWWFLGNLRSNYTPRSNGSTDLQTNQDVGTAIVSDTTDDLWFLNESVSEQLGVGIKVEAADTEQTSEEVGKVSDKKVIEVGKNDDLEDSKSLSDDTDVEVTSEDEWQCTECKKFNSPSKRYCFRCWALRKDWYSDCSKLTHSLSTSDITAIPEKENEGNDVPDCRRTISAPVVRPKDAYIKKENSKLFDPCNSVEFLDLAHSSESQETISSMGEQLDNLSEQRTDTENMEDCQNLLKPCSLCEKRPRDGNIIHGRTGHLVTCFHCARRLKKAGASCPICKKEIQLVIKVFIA

B1: ^DPMI-δ(2-6) (peptide)
peptide: [dT][R5][dTrp(6-F)][dY][dA][R5][dPhe(4-CF3)][dE][dK][dL][dL][dR]-NH2
modifications: staple 2-6
B2: ^DPMI-δ(1,5,12) (peptide)
peptide: XAXYXNXEKLLX
modifications: all alpha-amino acids have a D configuration; Xaa1 is R5 ((R)-2-(4'-pentenyl)-alanine), Xaa5 is B5 (2,2-(4'-pentenyl)-glycine), Xaa12 is R8 ((R)-2-(7'-octenyl)-alanine), joined by a hydrocarbon stitch 1-5 and 5-12 with residue 5 in common; Xaa3 is 6-F-Trp; Xaa7 is p-CF3-Phe; Xaa12 optionally has a C-terminal amide; Xaa1 optionally has a N-terminal acyl
B3: ^DPMI-δ(2-9) (peptide)
peptide: [dT][S8][dTrp(6-F)][dY][dA][dN][dPhe(4-CF3)][dE][R5][dL][dL][dR]-NH2
modifications: staple 2-9
B4: ^DPMI-δ(1-5,9-12) (peptide)
peptide: [R5][dA][dTrp(6-F)][dY][R5][dN][dPhe(4-CF3)][dE][S5][dL][dL][R8]-NH2
modifications: staple 1-5, 9-12
B5: ^DPMI-δ(1-5) (peptide)
peptide: XAXYXNXEKLLR
modifications: all alpha-amino acids have a D configuration; Xaa1 is R5 and Xaa5 is R5 ((R)-2-(4'-pentenyl)-alanine), joined by a hydrocarbon staple; Xaa3 is 6-F-Trp; Xaa7 is p-CF3-Phe; Xaa12 optionally has a C-terminal amide; Xaa1 optionally has a N-terminal acyl

Columns and labels:
[1] = test system: Jump-In™ T-REx™ CHO-K1 BLA cells; assay: Tetracycline beta-lactamase reporter gene assay (counterscreen); assay type: cell-based; details: read-out: Counterscreen EC50 (μM) (2% FBS) 16 H; 2% FBS, 16 H
Description: Cells were seeded into a 384-well plate a density of 4000 cells per well. […] Measurements were carried out using Envision multiplate reader (Perkin-Elmer).

MDM2 [2] = molecular target: T2, MDM2 (Homo sapiens, UniProt Q00987); assay: Surface plasmon resonance (SPR) binding to MDM2; details: for Kd: MDM2
T2 construct: GST (N); His6 (N); made in house; host or cells: E. coli BL21 (DE3) Rosetta T1R
Description: SPR experiments were performed with Biacore T100 (GE Healthcare) at 25° C. […] SPR buffer consisted of PBS pH 7.2, 1 mM DTT, 0.01% Tween 20, and 3% DMSO. The CMS chip was first conditioned with 100 mM HCl, followed by 0.1% SIDS, 50 mM NaOH and then water, all performed twice with 6 second injection at a flow rate of 100 μL/min. With the flow rate set to 10 μL/minutes, streptavidin (S4762. Sigma-Aldrich) was immobilized on the conditioned chip through amine coupling as described in the Biacore manual. Excess protein was removed by 30 second injection of the wash solution (50 mM NaOH+1M NaCl) for at least 8 times. The immobilized levels are 3400-3700 RU. The biotinylated MDM2 were captured to the streptavidin, to a level of ˜400 RU for MDM2. Flow cell consisted of only streptavidin was used as the reference surface. Using a flow rate of 30 μL/minutes, peptides dissolved in the SPR buffer are injected for 180 sec. The dissociation was monitored for 300 seconds. […] For single-cycle kinetics, five peptide concentrations were injected consecutively for 180 seconds, followed by a 4000 second dissociation. Similar injection of SPR buffer was followed to allow the surface to be regenerated, though not completely. After the run, responses from the target protein surface are transformed by (i) correcting with DMSO calibration curve, (ii) subtracting the responses obtained from the reference surface, and (iii) subtracting the responses of buffer injections from those of peptide injections. The last step is known as double referencing which corrects the systematic artefacts. The resulting responses were subjected to kinetic analysis by global fitting with 1:1 binding model.

[3] = Circular dichroism (CD) helicity of peptide in solution; assay type: physicochemical; details: 25° C.
Description: Prior to the experiment, 5 μl of the 10 mM stock peptide was mixed with 45 μl of 100% methanol, and dried for 2 hours in the SpeedVac concentrator (Thermo Scientific). The dried peptide was reconstituted in buffer, containing 1 mM HEPES pH 7.4 and 5% methanol, to a concentration of 1 mM. The peptide sample was placed in a quartz cuvette with a path length of 0.2 cm and the CD spectrum was recorded from 300 to 190 nm at 25° C., using the Chirascan-plus qCD machine (Applied Photophysics). […] An estimate of the secondary stmcture components of the peptide was carried out by converting the CD spectrum to mean residue ellipticity, before deconvoluting using the CDNN software (distributed by Applied Photophysics). All experiments were done in duplicates.

[4] = test system: HCT116 p53 reporter cells; assay: p53 beta-lactamase reporter gene assay; assay type: cell-based; details: 16 hours, up to 50 μM
Description: The cells were incubated overnight and followed by removal of cell growth media and replaced with Opti-MEM either containing 0% FBS or 10% FBS. […] Measurements were done using Envision multiplate reader (Perkin-Elmer).

MDM4 = molecular target: T1, MDM4; assay: Fluorescence polarization (FP) binding to MDM4/MDMX
MDM2 [5] = molecular target: T2, MDM2; assay: MDM2 binding assay, fluorescence polarization (FP) competition
Description: [P] is the protein concentration (MDM2), [L] is the labeled peptide concentration, r is the anisotropy measured, r0 is the anisotropy of the free peptide, rb is the anisotropy of the MDM2-FAM-labeled peptide complex, Kd is the dissociation constant, [L]t is the total FAM labeled peptide concentration, and [P]t is the total MDM2 concentration. […] The competing molecules were then titrated against the complex of the FAM-labeled peptide and protein. Apparent Kd values were determined by fitting the experimental data to the equations shown below:
[L]st and [L]t denote labeled ligand and total unlabeled ligand input concentrations, respectively. Kd2 is the dissociation constant of the interaction between the unlabeled ligand and the protein. In all competition experiments, it is assumed that [P]t>[L]st, otherwise considerable amounts of free labeled ligand would always be present and would interfere with measurements. […] The FAM-labeled peptide was dissolved in dimethyl sulfoxide (DMSO) at 1 mM and diluted into experimental buffer. Readings were carried out with an Envision Multilabel Reader (PerkinElmer). […] All titrations were carried out in triplicate. […] Negative control titrations of the ligands under investigation were also carried out with the fluorescently labeled peptide (in the absence of MDM2) to ensure no interactions were occurring between the ligands and the FAM-labeled peptide.

[6] = molecular target: T3, human MDM2 protein (amino acids 1-125) (Homo sapiens, UniProt Q00987); assay: fluorescence polarization competition, FAM-12/1 tracer, MDM2
[7] = molecular target: T3, human MDM2 protein (amino acids 1-125); assay: SPR, biotinylated MDM2 on streptavidin, peptide as analyte
[8] = molecular target: T3, human MDM2 protein (amino acids 1-125); assay: cell-based or functional assay
MDM4 protein (human) = MDM4 protein (human) (UniProt O15151); assay: fluorescence polarization assay on MDM4 (anisotropy falls with the peptide concentration; the labeled tracer used with MDM4 is not given)
[9] = molecular target: T3, human MDM2 protein (amino acids 1-125); assay: fluorescence polarization competition, MDM2
[10] = molecular target: T3, human MDM2 protein (amino acids 1-125); assay: fluorescence anisotropy competition: unlabeled peptide titrated against the complex of MDM2 (250 nM) and FAM-labeled 12/1 peptide (50 nM)

T3 sequence (Q00987 1-125 limits assumed): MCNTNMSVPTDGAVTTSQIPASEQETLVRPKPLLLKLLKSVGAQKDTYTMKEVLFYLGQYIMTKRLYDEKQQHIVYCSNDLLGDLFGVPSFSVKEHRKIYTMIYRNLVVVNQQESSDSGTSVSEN
T2 sequence (Q00987 1-125): as the sequence (Q00987 1-125 limits assumed) above

Molecule | Kd [6] [nM] | Kd [7] [nM] | P53 activity EC50 (µM) (2% FBS) 16 H [8] | IC50 (read off the curve) (MDM4 protein (human)) [nM] | fold increase in affinity as compared to ^DPMI-δ(1-5) and ^DPMI-δ(5-12) [9] [fold] | IC50 (read off the curve) [10] [nM] | further results
CC(C)C[C@@H](NC(=O)[C@@H](CC(C)C)NC(=O)[C@@H](CCCCN)NC(=O)[C@@H](CCC(=O)O)NC(=O)[C@@H](Cc1ccc(C(F)(F)F)cc1)NC(=O)[C@@]1(C)CCC/C=C\CCC[C@@](C)(NC(=O)[C@H](N)[C@H](C)O)C(=O)N[C@H](Cc2c[nH]c3cc(F)ccc23)C(=O)N[C@H](Cc2ccc(O)cc2)C(=O)N[C@H](C)C(=O)N1)C(=O)N[C@H](CCCNC(=N)N)C(N)=O [^DPMI-δ (2-6)] (H-[dT][R5][dTrp(6-F)][dY][dA][R5][dPhe(4-CF3)][dE][dK][dL][dL][dR]-NH2; staple (Z) 2-6) |  |  |  |  |  |  | EC50 [1]: 13.9 µM; binding to MDM2 in SPR (MDM2 [2]): non-binder; Kd (MDM2 [2]; Table 1): > 500 nM; Kd (MDM2 [2]; Table 2): > 500 nM; CD (% helicity) [3]: 46.7%; p53 activation in reporter cells [4]: unable to activate cellular p53; binding to MDMX in FP assay (MDM4): no binding; binding to MDM2 in FP assay (MDM2 [5]): no binding
B1 | > 10000 | > 500 | > 50 |  |  |  | 
B2 | 4.25 | < 1 | 4 | 1000 | 10 to 100 | 200 | 
B3 |  |  | > 50 |  |  |  | 
B4 | 0.7 | < 1 | 34.6 | 2000 | 10 to 100 | 200 | 
B5 |  | < 1 | 13.7 | 600 |  | 500 | cellular activation of p53, EC50 (HCT116 p53 reporter cells) [8]: 17500 nM
